Measured values from IntAct's records for PubMed 28062662.

B1: Glutaryl-CoA dehydrogenase, mitochondrial (Homo sapiens), Q92947 (parent)
chain: MALRGVSVRLLSRGPGLHVLRTWVSSAAQTEKGGRTQSQLAKSSRPEFDWQDPLVLEEQLTTDEILIRDTFRTYCQERLMPRILLANRNEVFHREIISEMGELGVLGPTIKGYGCAGVSSVAYGLLARELERVDSGYRSAMSVQSSLVMHPIYAYGSEEQRQKYLPQLAKGELLGCFGLTEPNSGSDPSSMETRAHYNSSNKSYTLNGTKTWITNSPMADLFVVWARCEDGCIRGFLLEKGMRGLSAPRIQGKFSLRASATGMIIMDGVEVPEENVLPGASSLGGPFGCLNNARYGIAWGVLGASEFCLHTARQYALDRMQFGVPLARNQLIQKKLADMLTEITLGLHACLQLGRLKDQDKAAPEMVSLLKRNNCGKALDIARQARDMLGGNGISDEYHVIRHAMNLEAVNTYEGTHDIHALILGRAITGIQAFTASK
partner: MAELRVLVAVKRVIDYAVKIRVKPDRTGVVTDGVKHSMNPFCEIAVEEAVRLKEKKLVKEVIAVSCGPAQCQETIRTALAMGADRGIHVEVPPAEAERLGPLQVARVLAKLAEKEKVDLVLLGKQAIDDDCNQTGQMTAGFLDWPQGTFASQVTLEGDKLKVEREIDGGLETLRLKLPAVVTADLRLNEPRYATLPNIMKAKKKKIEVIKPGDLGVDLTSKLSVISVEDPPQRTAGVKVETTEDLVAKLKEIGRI

Variants of: B1
Conditions: with etfb_human ETFB

Row | Variant | effect of a mutation on the interaction
1 | MALRGVSVRLLSRGPGLHVLRTWVSSAAQTEKGGRTQSQLAKSSRPEFDWQDPLVLEEQLTTDEILIRDTFRTYCQERLMPRILLANRNEVFHLEIISEMGELGVLGPTIKGYGCAGVSSVAYGLLARELERVDSGYRSAMSVQSSLVMHPIYAYGSEEQRQKYLPQLAKGELLGCFGLTEPNSGSDPSSMETRAHYNSSNKSYTLNGTKTWITNSPMADLFVVWARCEDGCIRGFLLEKGMRGLSAPRIQGKFSLRASATGMIIMDGVEVPEENVLPGASSLGGPFGCLNNARYGIAWGVLGASEFCLHTARQYALDRMQFGVPLARNQLIQKKLADMLTEITLGLHACLQLGRLKDQDKAAPEMVSLLKRNNCGKALDIARQARDMLGGNGISDEYHVIRHAMNLEAVNTYEGTHDIHALILGRAITGIQAFTASK [R94L] | increasing interaction strength
2 | MALRGVSVRLLSRGPGLHVLRTWVSSAAQTEKGGRTQSQLAKSSRPEFDWQDPLVLEEQLTTDEILIRDTFRTYCQERLMPRILLANRNEVFHREIISEMGELGVLGPTIKGYGCAGVSSVAYGLLARELERVDSGYRSAMSVQSSLVMHPIYAYGSEEQQQKYLPQLAKGELLGCFGLTEPNSGSDPSSMETRAHYNSSNKSYTLNGTKTWITNSPMADLFVVWARCEDGCIRGFLLEKGMRGLSAPRIQGKFSLRASATGMIIMDGVEVPEENVLPGASSLGGPFGCLNNARYGIAWGVLGASEFCLHTARQYALDRMQFGVPLARNQLIQKKLADMLTEITLGLHACLQLGRLKDQDKAAPEMVSLLKRNNCGKALDIARQARDMLGGNGISDEYHVIRHAMNLEAVNTYEGTHDIHALILGRAITGIQAFTASK [R161Q] | increasing interaction strength
3 | MALRGVSVRLLSRGPGLHVLRTWVSSAAQTEKGGRTQSQLAKSSRPEFDWQDPLVLEEQLTTDEILIRDTFRTYCQERLMPRILLANRNEVFHREIISEMGELGVLGPTIKGYGCARVSSVAYGLLARELERVDSGYRSAMSVQSSLVMHPIYAYGSEEQRQKYLPQLAKGELLGCFGLTEPNSGSDPSSMETRAHYNSSNKSYTLNGTKTWITNSPMADLFVVWARCEDGCIRGFLLEKGMRGLSAPRIQGKFSLRASATGMIIMDGVEVPEENVLPGASSLGGPFGCLNNARYGIAWGVLGASEFCLHTARQYALDRMQFGVPLARNQLIQKKLADMLTEITLGLHACLQLGRLKDQDKAAPEMVSLLKRNNCGKALDIARQARDMLGGNGISDEYHVIRHAMNLEAVNTYEGTHDIHALILGRAITGIQAFTASK [G117R] | decreasing interaction strength
4 | MALRGVSVRLLSRGPGLHVLRTWVSSAAQTEKGGRTQSQLAKSSRPEFDWQDPLVLEEQLTTDEILIRDTFRTYCQERLMPRILLANRNEVFHREIISEMGELGVLGPTIKGYGCAGVLSVAYGLLARELERVDSGYRSAMSVQSSLVMHPIYAYGSEEQRQKYLPQLAKGELLGCFGLTEPNSGSDPSSMETRAHYNSSNKSYTLNGTKTWITNSPMADLFVVWARCEDGCIRGFLLEKGMRGLSAPRIQGKFSLRASATGMIIMDGVEVPEENVLPGASSLGGPFGCLNNARYGIAWGVLGASEFCLHTARQYALDRMQFGVPLARNQLIQKKLADMLTEITLGLHACLQLGRLKDQDKAAPEMVSLLKRNNCGKALDIARQARDMLGGNGISDEYHVIRHAMNLEAVNTYEGTHDIHALILGRAITGIQAFTASK [S119L] | decreasing interaction strength
5 | MALRGVSVRLLSRGPGLHVLRTWVSSAAQTEKGGRTQSQLAKSSRPEFDWQDPLVLEEQLTTDEILIRDTFRTYCQERLMPRILLANRNEVFHREIISEMGELGVLGPTIKGHGCAGVSSVAYGLLARELERVDSGYRSAMSVQSSLVMHPIYAYGSEEQRQKYLPQLAKGELLGCFGLTEPNSGSDPSSMETRAHYNSSNKSYTLNGTKTWITNSPMADLFVVWARCEDGCIRGFLLEKGMRGLSAPRIQGKFSLRASATGMIIMDGVEVPEENVLPGASSLGGPFGCLNNARYGIAWGVLGASEFCLHTARQYALDRMQFGVPLARNQLIQKKLADMLTEITLGLHACLQLGRLKDQDKAAPEMVSLLKRNNCGKALDIARQARDMLGGNGISDEYHVIRHAMNLEAVNTYEGTHDIHALILGRAITGIQAFTASK [Y113H] | increasing interaction strength
6 | MALRGVSVRLLSRGPGLHVLRTWVSSAAQTEKGGRTQSQLAKSSRPEFDWQDPLVLEEQLTTDEILIRDTFRTYCQERLMPRILLANRNEVFHREIISEMGELGVLGPTIKGYGCAGVSSVAYGLLARELERVDSGYRSAMSVQSSLVMHPIYAYGSEEQRQKYLPQLAKGELLGCFGLTEPNSGSDPSSMETRAHYNSSNKSYTLNGTKTWITNSLMADLFVVWARCEDGCIRGFLLEKGMRGLSAPRIQGKFSLRASATGMIIMDGVEVPEENVLPGASSLGGPFGCLNNARYGIAWGVLGASEFCLHTARQYALDRMQFGVPLARNQLIQKKLADMLTEITLGLHACLQLGRLKDQDKAAPEMVSLLKRNNCGKALDIARQARDMLGGNGISDEYHVIRHAMNLEAVNTYEGTHDIHALILGRAITGIQAFTASK [P217L] | decreasing interaction strength
7 | MALRGVSVRLLSRGPGLHVLRTWVSSAAQTEKGGRTQSQLAKSSRPEFDWQDPLVLEEQLTTDEILIRDTFRTYCQERLMPRILLANRNEVFHREIISEMGELGVLGPTIKGYGCAGVSSVAYGLLARELERVDSGYRSAMSVQSSLVMHPIYAHGSEEQRQKYLPQLAKGELLGCFGLTEPNSGSDPSSMETRAHYNSSNKSYTLNGTKTWITNSPMADLFVVWARCEDGCIRGFLLEKGMRGLSAPRIQGKFSLRASATGMIIMDGVEVPEENVLPGASSLGGPFGCLNNARYGIAWGVLGASEFCLHTARQYALDRMQFGVPLARNQLIQKKLADMLTEITLGLHACLQLGRLKDQDKAAPEMVSLLKRNNCGKALDIARQARDMLGGNGISDEYHVIRHAMNLEAVNTYEGTHDIHALILGRAITGIQAFTASK [Y155H] | increasing interaction strength
8 | MALRGVSVRLLSRGPGLHVLRTWVSSAAQTEKGGRTQSQLAKSSRPEFDWQDPLVLEEQLTTDEILIRDTFRTYCQERLMPRILLANRNEVFHREIISEMGELGVLGPTIKGYGYAGVSSVAYGLLARELERVDSGYRSAMSVQSSLVMHPIYAYGSEEQRQKYLPQLAKGELLGCFGLTEPNSGSDPSSMETRAHYNSSNKSYTLNGTKTWITNSPMADLFVVWARCEDGCIRGFLLEKGMRGLSAPRIQGKFSLRASATGMIIMDGVEVPEENVLPGASSLGGPFGCLNNARYGIAWGVLGASEFCLHTARQYALDRMQFGVPLARNQLIQKKLADMLTEITLGLHACLQLGRLKDQDKAAPEMVSLLKRNNCGKALDIARQARDMLGGNGISDEYHVIRHAMNLEAVNTYEGTHDIHALILGRAITGIQAFTASK [C115Y] | increasing interaction strength
9 | MALRGVSVRLLSRGPGLHVLRTWVSSAAQTEKGGRTQSQLAKSSRPEFDWQDPLVLEEQLTTDEILIRDTFRTYCQERLMPRILLANRNKVFHREIISEMGELGVLGPTIKGYGCAGVSSVAYGLLARELERVDSGYRSAMSVQSSLVMHPIYAYGSEEQRQKYLPQLAKGELLGCFGLTEPNSGSDPSSMETRAHYNSSNKSYTLNGTKTWITNSPMADLFVVWARCEDGCIRGFLLEKGMRGLSAPRIQGKFSLRASATGMIIMDGVEVPEENVLPGASSLGGPFGCLNNARYGIAWGVLGASEFCLHTARQYALDRMQFGVPLARNQLIQKKLADMLTEITLGLHACLQLGRLKDQDKAAPEMVSLLKRNNCGKALDIARQARDMLGGNGISDEYHVIRHAMNLEAVNTYEGTHDIHALILGRAITGIQAFTASK [E90K] | increasing interaction strength
10 | MALRGVSVRLLSRGPGLHVLRTWVSSAAQTEKGGRTQSQLAKSSRPEFDWQDPLVLEEQLTTDEILIRDTFRTYCQERLMPRILLANCNEVFHREIISEMGELGVLGPTIKGYGCAGVSSVAYGLLARELERVDSGYRSAMSVQSSLVMHPIYAYGSEEQRQKYLPQLAKGELLGCFGLTEPNSGSDPSSMETRAHYNSSNKSYTLNGTKTWITNSPMADLFVVWARCEDGCIRGFLLEKGMRGLSAPRIQGKFSLRASATGMIIMDGVEVPEENVLPGASSLGGPFGCLNNARYGIAWGVLGASEFCLHTARQYALDRMQFGVPLARNQLIQKKLADMLTEITLGLHACLQLGRLKDQDKAAPEMVSLLKRNNCGKALDIARQARDMLGGNGISDEYHVIRHAMNLEAVNTYEGTHDIHALILGRAITGIQAFTASK [R88C] | increasing interaction strength
11 | MALRGVSVRLLSRGPGLHVLRTWVSSAAQTEKGGRTQSQLAKSSRPEFDWQDPLVLEEQLTTDEILIRDTFRTYCQERLMPRILLANRNEVFHREIISEMRELGVLGPTIKGYGCAGVSSVAYGLLARELERVDSGYRSAMSVQSSLVMHPIYAYGSEEQRQKYLPQLAKGELLGCFGLTEPNSGSDPSSMETRAHYNSSNKSYTLNGTKTWITNSPMADLFVVWARCEDGCIRGFLLEKGMRGLSAPRIQGKFSLRASATGMIIMDGVEVPEENVLPGASSLGGPFGCLNNARYGIAWGVLGASEFCLHTARQYALDRMQFGVPLARNQLIQKKLADMLTEITLGLHACLQLGRLKDQDKAAPEMVSLLKRNNCGKALDIARQARDMLGGNGISDEYHVIRHAMNLEAVNTYEGTHDIHALILGRAITGIQAFTASK [G101R] | increasing interaction strength
12 | MALRGVSVRLLSRGPGLHVLRTWVSSAAQTEKGGRTQSQLAKSSRPEFDWQDPLVLEEQLTTDEILIRDTFRTYCQERLMPRILLANRNEVFHREIISEMGELGVLGPTIKGYGCAGVSSVAYGLLARELERVDSGYRSAMSVQSSLVMHPIYAYGSEEQRQKYLPQLAKGELLGCFGLTEPNSGSDPSSMETRAHYNSSNKSYTLNGTKTWITNSPMADLFVVWAPCEDGCIRGFLLEKGMRGLSAPRIQGKFSLRASATGMIIMDGVEVPEENVLPGASSLGGPFGCLNNARYGIAWGVLGASEFCLHTARQYALDRMQFGVPLARNQLIQKKLADMLTEITLGLHACLQLGRLKDQDKAAPEMVSLLKRNNCGKALDIARQARDMLGGNGISDEYHVIRHAMNLEAVNTYEGTHDIHALILGRAITGIQAFTASK [R227P] | increasing interaction strength
13 | MALRGVSVRLLSRGPGLHVLRTWVSSAAQTEKGGRTQSQLAKSSRPEFDCQDPLVLEEQLTTDEILIRDTFRTYCQERLMPRILLANRNEVFHREIISEMGELGVLGPTIKGYGCAGVSSVAYGLLARELERVDSGYRSAMSVQSSLVMHPIYAYGSEEQRQKYLPQLAKGELLGCFGLTEPNSGSDPSSMETRAHYNSSNKSYTLNGTKTWITNSPMADLFVVWARCEDGCIRGFLLEKGMRGLSAPRIQGKFSLRASATGMIIMDGVEVPEENVLPGASSLGGPFGCLNNARYGIAWGVLGASEFCLHTARQYALDRMQFGVPLARNQLIQKKLADMLTEITLGLHACLQLGRLKDQDKAAPEMVSLLKRNNCGKALDIARQARDMLGGNGISDEYHVIRHAMNLEAVNTYEGTHDIHALILGRAITGIQAFTASK [W50C] | increasing interaction strength
